We go through 1 substance from article PMC12603276.

The experiment has as its target MORC2 (UniProt Q9Y6X9). Description: co-IP of Flag-rPGK1, immunoblot. The conditions noted are these: reference: WT Flag-rPGK1; sites S256. On the technique in general: A western blot detects proteins with antibodies after separation by electrophoresis.

As for “PGK1 (from UniProt P00558) Flag-rPGK1 S256A”, the “binding against the reference” value is “lost”.
